# From patent US20150344570A1 (published 2015)
# T1: FcγRIIb (human, UniProt P31994 43-217)
# T1 construct: extracellular domain; Soluble extracellular domain with C-terminal His tag, used as analyte; also called FcgRIIb; CD32B; not shown: His tag at the C terminus
# T1 sequence (looked up): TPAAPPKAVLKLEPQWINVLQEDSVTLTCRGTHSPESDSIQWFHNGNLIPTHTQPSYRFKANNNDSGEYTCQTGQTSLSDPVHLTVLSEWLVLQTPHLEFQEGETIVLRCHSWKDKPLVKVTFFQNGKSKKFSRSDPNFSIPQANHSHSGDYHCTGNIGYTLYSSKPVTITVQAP
# T2: FcγRIIb extracellular domain with C-terminal His tag (human, UniProt P31994 43-217)
# T2 construct: extracellular domain; also called 2b; FcgRIIb; not shown: His tag at the C terminus
# T2 sequence (looked up): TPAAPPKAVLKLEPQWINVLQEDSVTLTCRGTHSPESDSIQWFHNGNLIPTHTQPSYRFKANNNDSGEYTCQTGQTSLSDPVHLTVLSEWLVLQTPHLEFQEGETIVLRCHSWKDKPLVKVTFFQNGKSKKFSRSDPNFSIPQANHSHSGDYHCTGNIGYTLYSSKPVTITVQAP
# How the values were obtained:
# FcγRIa = molecular target: T3, FcγRIa (human, UniProt P12314 16-292); assay: SPR (Biacore), captured antibody, FcγR as analyte, relative binding
# T3 construct: extracellular domain; Soluble extracellular domain with C-terminal His tag, used as analyte; also called FcgRI; CD64; not shown: His tag at the C terminus
# FcγRIIb = molecular target: T1, FcγRIIb; assay: as above
# [1] = molecular target: T2, FcγRIIb extracellular domain with …; assay: SPR (Biacore), relative to GpH7-A5/GpH7-B3/GpL16-k0 = 100
# [2] = molecular target: T4, FcγRIIIa extracellular domain with C-terminal His tag (human, UniProt P08637 17-208); assay: as above
# T4 construct: extracellular domain; also called 3a; FcgRIIIa; not shown: His tag at the C terminus
# T4 sequence (P08637 17-208): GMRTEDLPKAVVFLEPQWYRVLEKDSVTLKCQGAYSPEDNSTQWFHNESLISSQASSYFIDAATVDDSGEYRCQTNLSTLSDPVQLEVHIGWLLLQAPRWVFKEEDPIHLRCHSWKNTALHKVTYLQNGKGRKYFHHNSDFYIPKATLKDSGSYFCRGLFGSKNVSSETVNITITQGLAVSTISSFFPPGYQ
# T3 sequence (P12314 16-292): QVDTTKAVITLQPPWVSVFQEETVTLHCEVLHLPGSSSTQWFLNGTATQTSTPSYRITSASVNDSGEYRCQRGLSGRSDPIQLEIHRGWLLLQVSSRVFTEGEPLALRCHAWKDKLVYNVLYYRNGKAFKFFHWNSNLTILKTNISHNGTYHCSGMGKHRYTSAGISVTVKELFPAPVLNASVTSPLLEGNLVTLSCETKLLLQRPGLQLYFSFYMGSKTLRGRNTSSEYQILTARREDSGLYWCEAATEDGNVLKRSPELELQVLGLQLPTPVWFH
Binder,He/Con_1a (FcγRIa),He/Con_2b (FcγRIIb),He/Con_2b [1],He/Con_3a [2]
"GpH7-A5/GpH7-B3 variant Y300_12R/GpL16-k0 (antibody, human IgG1, kappa, He Ab: mutation in one H chain only; also called He Ab) heavy 1: not shown heavy 2: not shown light: DIVMTQSPLSLPVTPGEPASISCQASESLVHSNRNTYLHWYLQKPGQSPQLLIYKVSNRFSGVPDRFSGSGSGTDFTLKISRVEAEDVGVYYCSQNTHVPPTFGQGTKVEIERTVAAPSVFIFPPSDEQLKSGTASVVCLLNNFYPREAKVQWKVDNALQSGNSQESVTEQDSKDSTYSLSSTLTLSKADYEKHKVYACEVTHQGLSSPVTKSFNRGEC",105 % of GpH7-A5/GpH7-B3/GpL16-k0,41.2 % of GpH7-A5/GpH7-B3/GpL16-k0,,
"GpH7-A5/GpH7-B3 variant Y300_16H/GpL16-k0 (antibody, human IgG1, kappa, He Ab: mutation in one H chain only; also called He Ab) heavy 1: not shown heavy 2: not shown light: DIVMTQSPLSLPVTPGEPASISCQASESLVHSNRNTYLHWYLQKPGQSPQLLIYKVSNRFSGVPDRFSGSGSGTDFTLKISRVEAEDVGVYYCSQNTHVPPTFGQGTKVEIERTVAAPSVFIFPPSDEQLKSGTASVVCLLNNFYPREAKVQWKVDNALQSGNSQESVTEQDSKDSTYSLSSTLTLSKADYEKHKVYACEVTHQGLSSPVTKSFNRGEC",111 % of GpH7-A5/GpH7-B3/GpL16-k0,87 % of GpH7-A5/GpH7-B3/GpL16-k0,,
"GpH7-A5/GpH7-B3 variant H268_20W/GpL16-k0 (antibody, human IgG1, kappa, IgG1, anti-glypican-3; also called He Ab) heavy 1: not shown heavy 2: not shown light: DIVMTQSPLSLPVTPGEPASISCQASESLVHSNRNTYLHWYLQKPGQSPQLLIYKVSNRFSGVPDRFSGSGSGTDFTLKISRVEAEDVGVYYCSQNTHVPPTFGQGTKVEIERTVAAPSVFIFPPSDEQLKSGTASVVCLLNNFYPREAKVQWKVDNALQSGNSQESVTEQDSKDSTYSLSSTLTLSKADYEKHKVYACEVTHQGLSSPVTKSFNRGEC",,,111 % (control = 100),82.8 % (control = 100)
"GpH7-A5/GpH7-B3 variant K326_16H/GpL16-k0 (antibody, human IgG1, kappa, IgG1, anti-glypican-3; also called He Ab) heavy 1: not shown heavy 2: not shown light: DIVMTQSPLSLPVTPGEPASISCQASESLVHSNRNTYLHWYLQKPGQSPQLLIYKVSNRFSGVPDRFSGSGSGTDFTLKISRVEAEDVGVYYCSQNTHVPPTFGQGTKVEIERTVAAPSVFIFPPSDEQLKSGTASVVCLLNNFYPREAKVQWKVDNALQSGNSQESVTEQDSKDSTYSLSSTLTLSKADYEKHKVYACEVTHQGLSSPVTKSFNRGEC",,,119 % (control = 100),96.1 % (control = 100)
"GpH7-A5/GpH7-B3 variant P238_03V/GpL16-k0 (antibody, human IgG1, kappa, IgG1, anti-glypican-3; also called He Ab) heavy 1: not shown heavy 2: not shown light: DIVMTQSPLSLPVTPGEPASISCQASESLVHSNRNTYLHWYLQKPGQSPQLLIYKVSNRFSGVPDRFSGSGSGTDFTLKISRVEAEDVGVYYCSQNTHVPPTFGQGTKVEIERTVAAPSVFIFPPSDEQLKSGTASVVCLLNNFYPREAKVQWKVDNALQSGNSQESVTEQDSKDSTYSLSSTLTLSKADYEKHKVYACEVTHQGLSSPVTKSFNRGEC",,,120 % (control = 100),43.8 % (control = 100)
"GpH7-A5/GpH7-B3 variant Y300_20W/GpL16-k0 (antibody, human IgG1, kappa, He Ab: mutation in one H chain only; also called He Ab) heavy 1: not shown heavy 2: not shown light: DIVMTQSPLSLPVTPGEPASISCQASESLVHSNRNTYLHWYLQKPGQSPQLLIYKVSNRFSGVPDRFSGSGSGTDFTLKISRVEAEDVGVYYCSQNTHVPPTFGQGTKVEIERTVAAPSVFIFPPSDEQLKSGTASVVCLLNNFYPREAKVQWKVDNALQSGNSQESVTEQDSKDSTYSLSSTLTLSKADYEKHKVYACEVTHQGLSSPVTKSFNRGEC",112 % of GpH7-A5/GpH7-B3/GpL16-k0,84.1 % of GpH7-A5/GpH7-B3/GpL16-k0,,

# The remaining lines, values ahead:
He/Con_1a (FcγRIa),He/Con_2b (FcγRIIb),He/Con_2b [1],He/Con_3a [2],Binder
,,312 % (control = 100),46.7 % (control = 100),"GpH7-A5/GpH7-B3 variant P238_04F/GpL16-k0 (antibody, human IgG1, kappa, IgG1, anti-glypican-3; also called He Ab) heavy 1: not shown heavy 2: not shown light: DIVMTQSPLSLPVTPGEPASISCQASESLVHSNRNTYLHWYLQKPGQSPQLLIYKVSNRFSGVPDRFSGSGSGTDFTLKISRVEAEDVGVYYCSQNTHVPPTFGQGTKVEIERTVAAPSVFIFPPSDEQLKSGTASVVCLLNNFYPREAKVQWKVDNALQSGNSQESVTEQDSKDSTYSLSSTLTLSKADYEKHKVYACEVTHQGLSSPVTKSFNRGEC"
,,174 % (control = 100),30.5 % (control = 100),"GpH7-A5/GpH7-B3 variant P238_06M/GpL16-k0 (antibody, human IgG1, kappa, IgG1, anti-glypican-3; also called He Ab) heavy 1: not shown heavy 2: not shown light: DIVMTQSPLSLPVTPGEPASISCQASESLVHSNRNTYLHWYLQKPGQSPQLLIYKVSNRFSGVPDRFSGSGSGTDFTLKISRVEAEDVGVYYCSQNTHVPPTFGQGTKVEIERTVAAPSVFIFPPSDEQLKSGTASVVCLLNNFYPREAKVQWKVDNALQSGNSQESVTEQDSKDSTYSLSSTLTLSKADYEKHKVYACEVTHQGLSSPVTKSFNRGEC"
,,106 % (control = 100),91.6 % (control = 100),"GpH7-A5/GpH7-B3 variant L235_09D/GpL16-k0 (antibody, human IgG1, kappa, IgG1, anti-glypican-3; also called He Ab) heavy 1: not shown heavy 2: not shown light: DIVMTQSPLSLPVTPGEPASISCQASESLVHSNRNTYLHWYLQKPGQSPQLLIYKVSNRFSGVPDRFSGSGSGTDFTLKISRVEAEDVGVYYCSQNTHVPPTFGQGTKVEIERTVAAPSVFIFPPSDEQLKSGTASVVCLLNNFYPREAKVQWKVDNALQSGNSQESVTEQDSKDSTYSLSSTLTLSKADYEKHKVYACEVTHQGLSSPVTKSFNRGEC"
